# T1: PDLIM3, Q53GG5
# T1 sequence (Q53GG5 1-94, limits assumed, looked up): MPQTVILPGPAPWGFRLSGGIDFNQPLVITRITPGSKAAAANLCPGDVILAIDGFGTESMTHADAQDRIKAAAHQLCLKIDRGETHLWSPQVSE
# T2: MPDZ_3, O75970
# T2 sequence (O75970 372-473, limits assumed, looked up): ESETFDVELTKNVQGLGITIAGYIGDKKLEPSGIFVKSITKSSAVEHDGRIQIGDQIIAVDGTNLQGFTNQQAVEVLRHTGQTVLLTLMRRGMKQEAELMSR
# T3: MPDZ_6, O75970
# T3 sequence (O75970 1003-1099, limits assumed, looked up): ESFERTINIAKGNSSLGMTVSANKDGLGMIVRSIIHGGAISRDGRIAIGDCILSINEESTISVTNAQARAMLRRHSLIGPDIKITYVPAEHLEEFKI
# T4: USH1C_2, Q9Y6N9
# T4 sequence (Q9Y6N9 206-303, limits assumed, looked up): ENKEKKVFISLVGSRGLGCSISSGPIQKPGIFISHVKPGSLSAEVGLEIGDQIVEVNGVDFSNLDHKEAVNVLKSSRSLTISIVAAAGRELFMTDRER
# T5: MPP1, Q00013
# T5 sequence (Q00013 66-162, limits assumed, looked up): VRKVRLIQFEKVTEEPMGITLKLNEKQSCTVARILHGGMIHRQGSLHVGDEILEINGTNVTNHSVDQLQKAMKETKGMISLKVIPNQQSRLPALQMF
# T6: GRIP1_1, Q9Y3R0
# T6 sequence (Q9Y3R0 48-146, limits assumed, looked up): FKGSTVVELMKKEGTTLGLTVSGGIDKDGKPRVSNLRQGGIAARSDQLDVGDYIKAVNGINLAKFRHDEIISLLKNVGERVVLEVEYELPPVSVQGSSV
# T7: APBA3_2, O96018
# T7 sequence (O96018 480-570, limits assumed, looked up): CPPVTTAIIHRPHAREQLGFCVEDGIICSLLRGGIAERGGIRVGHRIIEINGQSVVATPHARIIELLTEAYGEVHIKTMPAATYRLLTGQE
# T8: PDZD2_1, O15018
# T8 sequence (O15018 80-192, limits assumed, looked up): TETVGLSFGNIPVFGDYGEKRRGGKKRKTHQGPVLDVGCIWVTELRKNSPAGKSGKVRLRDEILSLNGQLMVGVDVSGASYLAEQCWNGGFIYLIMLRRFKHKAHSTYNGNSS
# T9: SYNPO2L, Q9H987
# T9 sequence (Q9H987 1-98, limits assumed, looked up): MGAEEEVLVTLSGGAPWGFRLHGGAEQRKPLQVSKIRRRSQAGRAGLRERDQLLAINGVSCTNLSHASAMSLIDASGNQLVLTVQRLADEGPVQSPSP
# T10: SYNJ2BP, P57105
# T10 sequence (P57105 8-110, limits assumed, looked up): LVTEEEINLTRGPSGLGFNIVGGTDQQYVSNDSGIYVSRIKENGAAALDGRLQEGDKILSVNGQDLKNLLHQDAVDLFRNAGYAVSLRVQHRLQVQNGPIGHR
# T11: PARD6G, Q9BYG4
# T11 sequence (Q9BYG4 153-261, limits assumed, looked up): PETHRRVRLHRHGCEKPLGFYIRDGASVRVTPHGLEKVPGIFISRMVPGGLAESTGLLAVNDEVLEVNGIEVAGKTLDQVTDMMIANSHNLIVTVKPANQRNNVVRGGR
# T12: NHERF1_1, O14745
# T12 sequence (O14745 9-104, limits assumed, looked up): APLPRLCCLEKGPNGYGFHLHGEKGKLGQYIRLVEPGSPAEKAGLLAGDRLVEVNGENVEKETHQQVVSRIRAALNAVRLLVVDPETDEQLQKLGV
# Columns and labels:
# Experiment in all cases: holdup assay
# Set-up in all cases: key: below the threshold = too weak to quantify, mostly under pKd 3.1 to 4
# Details in all cases: plain residues with an end cap or a label only (N-terminal biotin on a linker: ttds)
# DVL2, O14641 = biological target: DVL2, O14641
# Sequence of DVL2, O14641 (O14641 260-359): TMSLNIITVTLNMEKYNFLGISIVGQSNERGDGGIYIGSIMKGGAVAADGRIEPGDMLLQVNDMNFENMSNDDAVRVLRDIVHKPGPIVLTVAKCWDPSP
# DLG2_1, Q15700 = biological target: DLG2_1, Q15700
# MAGI1_5, Q96QZ7 = biological target: MAGI1_5, Q96QZ7
# Sequence of MAGI1_5, Q96QZ7 (Q96QZ7 986-1098): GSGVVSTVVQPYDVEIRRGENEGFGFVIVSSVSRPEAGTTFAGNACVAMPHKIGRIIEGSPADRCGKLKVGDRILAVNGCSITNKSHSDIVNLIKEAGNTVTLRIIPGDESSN
# PDLIM3, Q53GG5 = biological target: T1, PDLIM3, Q53GG5
# MPDZ_3, O75970 = biological target: T2, MPDZ_3, O75970
# MPDZ_6, O75970 = biological target: T3, MPDZ_6, O75970
# PREX1_1, Q8TCU6 = biological target: PREX1_1, Q8TCU6
# Sequence of PREX1_1, Q8TCU6 (Q8TCU6 608-718): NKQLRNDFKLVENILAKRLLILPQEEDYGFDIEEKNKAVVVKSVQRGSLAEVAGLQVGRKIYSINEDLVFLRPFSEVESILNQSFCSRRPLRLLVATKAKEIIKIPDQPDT
# USH1C_2, Q9Y6N9 = biological target: T4, USH1C_2, Q9Y6N9
# MPP1, Q00013 = biological target: T5, MPP1, Q00013
# GRIP1_1, Q9Y3R0 = biological target: T6, GRIP1_1, Q9Y3R0
# APBA3_2, O96018 = biological target: T7, APBA3_2, O96018
# PDZRN4_2, Q6ZMN7 = biological target: PDZRN4_2, Q6ZMN7
# Sequence of PDZRN4_2, Q6ZMN7 (Q6ZMN7 389-498): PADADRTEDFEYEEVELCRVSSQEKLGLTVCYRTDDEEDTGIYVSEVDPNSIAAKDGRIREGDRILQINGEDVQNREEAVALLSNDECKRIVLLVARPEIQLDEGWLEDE
# RIMS2, Q9UQ26 = biological target: RIMS2, Q9UQ26
# Sequence of RIMS2, Q9UQ26 (Q9UQ26 637-758): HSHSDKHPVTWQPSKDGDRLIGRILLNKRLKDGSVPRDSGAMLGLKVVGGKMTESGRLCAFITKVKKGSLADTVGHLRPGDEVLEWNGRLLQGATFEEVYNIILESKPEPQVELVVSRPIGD
# PDZD2_1, O15018 = biological target: T8, PDZD2_1, O15018
# MAGI1_4, Q96QZ7 = biological target: MAGI1_4, Q96QZ7
# Sequence of MAGI1_4, Q96QZ7 (Q96QZ7 other isoform, or with tags, fused parts or gaps): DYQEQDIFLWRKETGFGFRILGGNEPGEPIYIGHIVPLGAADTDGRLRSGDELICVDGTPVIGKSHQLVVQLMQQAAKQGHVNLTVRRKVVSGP
# SYNPO2L, Q9H987 = biological target: T9, SYNPO2L, Q9H987
# SYNJ2BP, P57105 = biological target: T10, SYNJ2BP, P57105
# Inadl_7, Q8NI35 = biological target: Inadl_7, Q8NI35
# Sequence of Inadl_7, Q8NI35 (Q8NI35 1219-1332): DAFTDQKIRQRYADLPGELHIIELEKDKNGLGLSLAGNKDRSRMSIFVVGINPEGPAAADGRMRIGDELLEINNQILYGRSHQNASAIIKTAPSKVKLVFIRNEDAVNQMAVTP
# LIMK1, P53667 = biological target: LIMK1, P53667
# Sequence of LIMK1, P53667 (P53667 155-268): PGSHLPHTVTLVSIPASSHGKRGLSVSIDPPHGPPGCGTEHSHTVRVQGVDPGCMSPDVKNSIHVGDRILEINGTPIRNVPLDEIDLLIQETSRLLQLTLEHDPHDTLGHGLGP
# MAST3, O60307 = biological target: MAST3, O60307
# Sequence of MAST3, O60307 (O60307 945-1048): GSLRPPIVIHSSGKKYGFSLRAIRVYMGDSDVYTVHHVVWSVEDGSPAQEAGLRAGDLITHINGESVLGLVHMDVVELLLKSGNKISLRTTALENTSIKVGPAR
# CNKSR3, Q6P9H4 = biological target: CNKSR3, Q6P9H4
# Sequence of CNKSR3, Q6P9H4 (Q6P9H4 203-303): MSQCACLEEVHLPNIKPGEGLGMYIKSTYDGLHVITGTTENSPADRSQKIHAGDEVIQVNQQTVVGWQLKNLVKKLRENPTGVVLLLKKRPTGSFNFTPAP
# PARD6G, Q9BYG4 = biological target: T11, PARD6G, Q9BYG4
# NHERF1_1, O14745 = biological target: T12, NHERF1_1, O14745
# MAGI3_5, Q5TCQ9 = biological target: MAGI3_5, Q5TCQ9
# Sequence of MAGI3_5, Q5TCQ9 (Q5TCQ9 847-941): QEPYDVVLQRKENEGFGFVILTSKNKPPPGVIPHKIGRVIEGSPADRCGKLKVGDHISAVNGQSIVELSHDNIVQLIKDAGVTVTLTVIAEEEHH
# PTPN13_2, Q12923 = biological target: PTPN13_2, Q12923
# Sequence of PTPN13_2, Q12923 (Q12923 1363-1462): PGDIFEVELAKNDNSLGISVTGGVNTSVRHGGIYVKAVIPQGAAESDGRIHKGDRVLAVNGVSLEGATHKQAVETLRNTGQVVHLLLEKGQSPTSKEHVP
Binder,"pKd (DVL2, O14641)","pKd (DLG2_1, Q15700)","pKd (MAGI1_5, Q96QZ7)","pKd (PDLIM3, Q53GG5)","pKd (MPDZ_3, O75970)","pKd (MPDZ_6, O75970)","pKd (PREX1_1, Q8TCU6)","pKd (USH1C_2, Q9Y6N9)","pKd (MPP1, Q00013)","pKd (GRIP1_1, Q9Y3R0)","pKd (APBA3_2, O96018)","pKd (PDZRN4_2, Q6ZMN7)","pKd (RIMS2, Q9UQ26)","pKd (PDZD2_1, O15018)","pKd (MAGI1_4, Q96QZ7)","pKd (SYNPO2L, Q9H987)","pKd (SYNJ2BP, P57105)","pKd (LIMK1, P53667)","pKd (MAST3, O60307)","pKd (CNKSR3, Q6P9H4)",also measured
"SVWLRKETRV [CYSLTR2, Q9NS75]",below the threshold,5.26,4.57,below the threshold,below the threshold,below the threshold,below the threshold,below the threshold,6.03,below the threshold,below the threshold,below the threshold,below the threshold,below the threshold,below the threshold,below the threshold,5.38,below the threshold,below the threshold,below the threshold,"pKd (Inadl_7, Q8NI35): below the threshold; pKd (PARD6G, Q9BYG4): below the threshold; pKd (NHERF1_1, O14745): below the threshold; pKd (MAGI3_5, Q5TCQ9): below the threshold; pKd (PTPN13_2, Q12923): below the threshold"
"RSLEEEESQL [GRASP, Q7Z6J2]",below the threshold,below the threshold,below the threshold,below the threshold,below the threshold,below the threshold,4.08,below the threshold,below the threshold,below the threshold,4.18,below the threshold,below the threshold,below the threshold,below the threshold,below the threshold,3.86,4.27,below the threshold,4.6,"pKd (Inadl_7, Q8NI35): below the threshold; pKd (PARD6G, Q9BYG4): below the threshold; pKd (NHERF1_1, O14745): 4.46; pKd (MAGI3_5, Q5TCQ9): below the threshold; pKd (PTPN13_2, Q12923): below the threshold"
"SRPQRTQTQV [HPV67-E6, A4U7F2]",below the threshold,4.25,4.35,below the threshold,below the threshold,below the threshold,below the threshold,below the threshold,5.26,below the threshold,below the threshold,below the threshold,below the threshold,below the threshold,below the threshold,below the threshold,4.4,below the threshold,below the threshold,below the threshold,"pKd (Inadl_7, Q8NI35): 4.46; pKd (PARD6G, Q9BYG4): below the threshold; pKd (NHERF1_1, O14745): below the threshold; pKd (MAGI3_5, Q5TCQ9): below the threshold; pKd (PTPN13_2, Q12923): below the threshold"
"SSRTRRETQL [HPV16-E6, P03126]",below the threshold,4.92,4.69,3.88,below the threshold,below the threshold,below the threshold,3.92,below the threshold,below the threshold,below the threshold,below the threshold,below the threshold,below the threshold,below the threshold,below the threshold,5.18,below the threshold,below the threshold,below the threshold,"pKd (Inadl_7, Q8NI35): below the threshold; pKd (PARD6G, Q9BYG4): below the threshold; pKd (NHERF1_1, O14745): 4.15; pKd (MAGI3_5, Q5TCQ9): 3.96; pKd (PTPN13_2, Q12923): below the threshold"
"PKTPPTDTSV [KIR3DL3, Q8N743]",below the threshold,below the threshold,below the threshold,below the threshold,below the threshold,below the threshold,below the threshold,below the threshold,below the threshold,below the threshold,below the threshold,below the threshold,below the threshold,4.3,below the threshold,below the threshold,4.44,below the threshold,below the threshold,below the threshold,"pKd (PARD6G, Q9BYG4): below the threshold; pKd (NHERF1_1, O14745): below the threshold; pKd (MAGI3_5, Q5TCQ9): below the threshold; pKd (PTPN13_2, Q12923): below the threshold"

# — article PMC9482650, “Quantitative fragmentomics allow affinity mapping of interactomes” (Nature Communications, 2022)
